Earlier results in article PMC4010523.

Biological target: complement C5 (Homo sapiens) (UniProt P01031)

- Kd: 0.12 nM
Substance: Eculizumab
